Assay results as given in paper doi:10.1101/2024.10.14.618187, “Molecular basis of interchain disulfide-bond formation in BMP-9 and BMP-10” (bioRxiv, 2024).
Numbering of substitutions follows the chain as printed. In names and notes the source's numbering stands.

Tests used:
[1] = target: BMP-9 monomer (cysteinylated BMP-9 growth factor) (human) (UniProt Q9UK05)
[2] = target: BMP-9 dimer (disulfide-linked BMP-9 growth factor homodimer) (human) (UniProt Q9UK05)
[3] = target: T1, Pro-(X)-BMP-10 S385G, R353K, O95393; assay: SDS-PAGE densitometry after IMAC purification; details: chain shown with the change
T1 chain: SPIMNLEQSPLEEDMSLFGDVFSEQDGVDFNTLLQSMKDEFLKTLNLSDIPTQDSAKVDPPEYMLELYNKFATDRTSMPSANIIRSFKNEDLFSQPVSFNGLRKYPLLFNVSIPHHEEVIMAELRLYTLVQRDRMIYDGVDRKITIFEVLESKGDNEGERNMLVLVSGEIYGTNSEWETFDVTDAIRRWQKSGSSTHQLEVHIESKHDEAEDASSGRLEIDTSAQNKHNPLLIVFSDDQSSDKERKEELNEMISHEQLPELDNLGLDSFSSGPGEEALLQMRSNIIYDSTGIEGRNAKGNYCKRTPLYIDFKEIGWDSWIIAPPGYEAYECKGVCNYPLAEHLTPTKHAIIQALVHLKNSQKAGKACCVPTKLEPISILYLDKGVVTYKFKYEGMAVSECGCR

[4] = target: T2, Pro-(X)-BMP-10 S385G, O95393; assay: SDS-PAGE densitometry after IMAC purification; details: chain shown with the change
T2 chain: T1 chain with K332R

[5] = target: T3, Pro-(X)-BMP-10 R353K, O95393; assay: SDS-PAGE densitometry after IMAC purification; details: chain shown with the change
T3 chain: T1 chain with G364S

BMP-10 monomer (human) = BMP-10 monomer (human) (UniProt O95393)
BMP-10 dimer (human) = BMP-10 dimer (human) (UniProt O95393)
[6] = target: the molecule itself; assay: crystal structure; purified BMP-9 dimers at acidic pH: wild type 0.3 M sodium citrate pH 3.5; mutants 0.1 M acetic acid pH 4
[7] = target: the molecule itself; assay: crystal structure; BMP-10 Crystal Chimera; 25% 1,2-propanediol, 100 mM phosphate pH 6.2, 10% glycerol
[8] = target: the molecule itself; assay: non-reducing SDS-PAGE after IMAC, with densitometry; His-tagged pro-proteins purified from expi293 conditioned medium by IMAC, run non-reduced and reduced; shows the disulfide-linked dimer beside the monomer; bands quantified with ImageJ

**Q.** With “BMP-9 monomer (cysteinylated BMP-9 growth factor) (from UniProt Q9UK05 320-429) (ligand)” as the molecule, how does the EC50 of pSMAD1/5/9 (western blot) in serum-starved HUVECs, 45 minutes, monomers 0.01–54 ng/mL [1] read?
**A.** 124 pM

**Q.** How did the EC50 of pSMAD1/5/9 (western blot) in serum-starved HUVECs, 45 minutes, dimers 0.001–1.62 ng/mL [2] turn out when “BMP-9 dimer (disulfide-linked BMP-9 growth factor homodimer) (from UniProt Q9UK05 320-429) (ligand)” was run?
**A.** 3.3 pM

B1: Pro-(X)-BMP-10, O95393 S385G; R353K (protein)
chain: T1 chain
**Q.** With B1 as the molecule, how does the other: dimer over monomer ratio [3] read?
**A.** 0.41

B2: Pro-(X)-BMP-10, O95393 S385G (protein)
chain: T1 chain with K332R
**Q.** For B2, which other: dimer over monomer ratio [4] is on record?
**A.** 0.42

B3: Pro-(X)-BMP-10, O95393 R353K (protein)
chain: T1 chain with G364S
**Q.** Which other: dimer over monomer ratio [5] does the source give for B3 here?
**A.** 0.9

B4: BMP-10 monomer (ligand)
chain: NAKGNYCKRTPLYIDFKEIGWDSWIIAPPGYEAYECRGVCNYPLAEHLTPTKHAIIQALVHLKNSQKASKACCVPTKLEPISILYLDKGVVTYKFKYEGMAVSECGCR
modifications: cysteinylated (+119 Da); the paper takes the site to be the interchain cysteine
**Q.** How did the EC50 of pSMAD1/5/9 (western blot) in serum-starved HUVECs, 45 minutes, monomers 0.01–54 ng/mL (BMP-10 monomer (human)) turn out when B4 was run?
**A.** 164 pM

B5: BMP-10 dimer (ligand)
chain: B4 chain
modifications: interchain disulfide
**Q.** With B5 as the molecule, how does the EC50 of pSMAD1/5/9 (western blot) in serum-starved HUVECs, 45 minutes, dimers 0.001–1.62 ng/mL (BMP-10 dimer (human)) read?
**A.** 5.9 pM

B6: BMP-9 G389S dimer (ligand, human, UniProt Q9UK05 320-429, looked up)
chain: SSGAGSHCQKTSLRVNFEDIGWDSWIIAPKEYEAYECKGGCFFPLADDVTPTKHAIVQTLVHLKFPTKVSKACCVPTKLSPISVLYKDDMGVPTLKYHYEGMSVAECGCR
modifications: interchain disulfide at Cys-392
notes: human BMP-9 growth factor domain from a mutant of Pro-(X)-BMP-9 (proBMP9 residues 23-429, A321S, RRKR replaced by IEGR); numbers count on the precursor; Rows of m3 with m3 mean the two chains of the dimer; source: expi293 (suspension HEK293), mutant of Pro-(X)-BMP-9; purified dimer
**Q.** Does B6 bind [6]?
**A.** binds

B7: BMP-9 G389S, K357R dimer (ligand, human, UniProt Q9UK05 320-429, looked up)
chain: B6 chain with K38R
modifications: interchain disulfide at Cys-392
notes: human BMP-9 growth factor domain from a mutant of Pro-(X)-BMP-9 (proBMP9 residues 23-429, A321S, RRKR replaced by IEGR); numbers count on the precursor; Rows of m4 with m4 mean the two chains of the dimer; also called BMP-9 double-mutant; source: expi293 (suspension HEK293), mutant of Pro-(X)-BMP-9; purified dimer
**Q.** Does B7 bind [6]?
**A.** binds

B8: BMP-10 Crystal Chimera (growth factor from Pro9-(X)-BMP-10 Crystal Chimera) (ligand, human)
chain: DDGNYCKRTPLYIDFKEIGWDSWIIAPPGYEAYECRGVCFFPLAEHLTPTKHAIIQTLVHLKNSQKASKACCVPTKLEPISILYLDKGVVTLKYKYEGMAVSECGCR
notes: human proBMP10 residues 320-424 with five residues replaced by BMP-9 crystal contacts; numbers count on the precursor; Expressed behind the BMP-9 prodomain (proBMP9 residues 23-315); also called chimeric BMP-10; source: expi293 (suspension HEK293), expressed as Pro9-(X)-BMP-10 Crystal Chimera; purified
**Q.** Does B8 bind [7]?
**A.** binds

B9: Pro-(fr)-TGF-β2 (natural protein, human, UniProt P61812-1 19-414, looked up)
chain: LSLSTSSTLDMDQFMRKRIEAIRGQILSKLKLTSPPEDYPEPEEVPPEVISIYNSTRDLLQEKASRRAAACERERSDEEYYAKEVYKIDMPPFFPSENAIPPTFYRPYFRIVRFDVSAMEKNASNLVKAEFRVFRLQNPKARVAEQRIELYQILKSKDLTSPTQRYIDSKVVKTRAEGEWLSFDVTDAVHEWLHHKDRNLGFKISLHCPCCTFVPSNNYIIPNKSEELEARFAGIDGTSTYTSGDQKTIKSTRKKNSGKTPHLLLMLLPSYRLESQQTNRRKKRALDAAYCFRNVQDNCCLRPLYIDFKRDLGWKWIHEPKGYNANFCAGACPYLWSSDTQHSRVLSLYNTINPEASASPCCVSQDLEPLTILYYIGKTPKIEQLSNMIVKSCKCS
notes: human proTGFβ2 residues 19-414; Behind the mouse Ig signal peptide and the His tag, no processing site after the tag; Furin processing incomplete; also called Pro-TGF-β2; source: expi293 (suspension HEK293), secreted; purified from conditioned medium by the histidine tag; not shown: 8xHis, N-terminal, kept
**Q.** Does B9 bind [8]?
**A.** binds

B10: Pro-(fr)-Act-A (natural protein, human, UniProt P08476 27-426, looked up)
chain: EGHSAAPDCPSCALAALPKDVPNSQPEMVEAVKKHILNMLHLKKRPDVTQPVPKAALLNAIRKLHVGKVGENGYVEIEDDIGRRAEMNELMEQTSEIITFAESGTARKTLHFEISKEGSDLSVVERAEVWLFLKVPKANRTRTKVTIRLFQQQKHPQGSLDTGEEAEEVGLKGERSELLLSEKVVDARKSTWHVFPVSSSIQRLLDQGKSSLDVRIACEQCQESGASLVLLGKKKKKEEEGEGKKKGGGEGGAGADEEKEQSHRPFLMLQARQSEDHPHRRRRRGLECDGKVNICCKKQFFVSFKDIGWNDWIIAPSGYHANYCEGECPSHIAGTSGSSLSFHSTVINHYRMRGHSPFANLKSCCVPTKLRPMSMLYYDDGQNIIKKDIQNMIVEECGCS
notes: human proINHBA residues 27-426; The results call it N-terminally histidine-tagged and purified by that tag; the methods say 'with no tag or processing site'; Furin processing incomplete; also called Pro-Activin-A; Pro-Act-A; source: expi293 (suspension HEK293), secreted; purified from conditioned medium by the histidine tag; not shown: His tag, N-terminal, kept
**Q.** Does B10 bind [8]?
**A.** binds

B11: Pro-(fr)-BMP-9 (natural protein, human, UniProt Q9UK05 23-429, looked up)
chain: KPLQSWGRGSAGGNAHSPLGVPGGGLPEHTFNLKMFLENVKVDFLRSLNLSGVPSQDKTRVEPPQYMIDLYNRYTSDKSTTPASNIVRSFSMEDAISITATEDFPFQKHILLFNISIPRHEQITRAELRLYVSCQNHVDPSHDLKGSVVIYDVLDGTDAWDSATETKTFLVSQDIQDEGWETLEVSSAVKRWVRSDSTKSKNKLEVTVESHRKGCDTLDISVPPGSRNLPFFVVFSNDHSSGTKETRLELREMISHEQESVLKKLSKDGSTEAGESSHEEDTDGHVAAGSTLARRKRSSGAGSHCQKTSLRVNFEDIGWDSWIIAPKEYEAYECKGGCFFPLADDVTPTKHAIVQTLVHLKFPTKVGKACCVPTKLSPISVLYKDDMGVPTLKYHYEGMSVAECGCR
notes: human proBMP9 residues 23-429 with the natural furin site; secreted partially processed; Partly cut by furin into prodomain and growth factor (12 and 24 kDa forms on the gel); also called Pro-BMP-9 with unmodified furin processing site; wild-type BMP-9; source: expi293 (suspension HEK293), secreted; purified by IMAC; not shown: 8xHis, N-terminal, kept
**Q.** Does B11 bind [8]?
**A.** binds

B12: Pro-(fr)-BMP-10 (natural protein, human, UniProt O95393 22-424, looked up)
chain: T1 chain with G291A, I292R, E293I, G294R, K332R, G364S
notes: human proBMP10 residues 22-424 with the natural furin site; secreted partially processed; Partly cut by furin into prodomain and growth factor; also called Pro-BMP-10 with unmodified furin processing site; wild-type BMP-10; source: expi293 (suspension HEK293), secreted; purified by IMAC; not shown: 8xHis, N-terminal, kept
**Q.** Does B12 bind [8]?
**A.** binds

B13: Pro-(X)-BMP-9 (natural protein, human, UniProt Q9UK05 23-429, looked up)
chain: B11 chain with R294I, R295E, K296G
notes: human proBMP9 residues 23-429, furin site RRKR replaced by factor X site IEGR; Secreted unprocessed as a monomer-dimer mixture; also called Pro-BMP-9 with factor-X processing site; Pro-BMP-9 wild-type; source: expi293 (suspension HEK293), secreted; purified from conditioned medium by IMAC; not shown: 8xHis, N-terminal, kept
**Q.** Does B13 bind [8]?
**A.** binds

B14: Pro-(X)-BMP-9 G389S (natural protein, human, UniProt Q9UK05 23-429, looked up)
chain: B11 chain with R294I, R295E, K296G, G367S
notes: also called G389S BMP-9; source: expi293 (suspension HEK293), secreted; purified by IMAC; not shown: 8xHis, N-terminal, kept
**Q.** Does B14 bind [8]?
**A.** binds

B15: Pro-(X)-BMP-9 K357R (natural protein, human, UniProt Q9UK05 23-429, looked up)
chain: B11 chain with R294I, R295E, K296G, K335R
notes: also called K357R BMP-9; source: expi293 (suspension HEK293), secreted; purified by IMAC; not shown: 8xHis, N-terminal, kept
**Q.** Does B15 bind [8]?
**A.** binds

B16: Pro-(X)-BMP-9 G389S, K357R (natural protein, human, UniProt Q9UK05 23-429, looked up)
chain: B11 chain with R294I, R295E, K296G, K335R, G367S
notes: also called G389S, K357R BMP-9; BMP-9 double mutant; source: expi293 (suspension HEK293), secreted; purified by IMAC; not shown: 8xHis, N-terminal, kept
**Q.** Does B16 bind [8]?
**A.** binds
